Measured values published in the RNAGym collection of RNA variant scans (doi:10.1093/molbev/msab373).

B1: Azoarcus group I ribozyme (parent)
chain: GUGCCUUGCGCCGGGAAACCACGCAAGGGAUGGUGUCAAAUUCGGCGAAACCUAAGCGCCCGCCCGGGCGUAUGGCAACGCCGAGCCAAGCUUCGGCGCCUGCGCCGAUGAAGGUGUAGAGACUAGACGGCACCCACCUAAGGCAAACGCUAUGGUGAAGGCAUAGUCCAGGGAGUGGCGAAAGUCACACAAACCGG

Variants of: B1
Test: reverse-splicing fitness (ratio to wild type); higher = more active; in vitro selection; Mg2+ level not given
Summary of the method: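 An in vitro group I ribozyme library with randomized positions was T7-transcribed and gel-purified. In triplicate, 10 pmol RNA in EPPS pH 7.5 was reacted with 50 pmoles of a 30-nt RNA substrate for 1 h at 37 °C across several added MgCl2 levels (1–48 mM), then stopped with EDTA. Products were reverse transcribed from a substrate-complementary primer, PCR-amplified and sequenced (HiSeq 4000). Fitness is a variant's read proportion after selection over that before, normalised to wild type.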

Q: For GUGCCUUGCGCCGGGAAACCACGCAAGGGAUGGUGUCAAAUUCGGCGAAACCUAAGCGCCCGCCCGGGCGUAUGGCAACGCCGAGCCAAGCUUCGGCGCCUGCGCCGAUGGAGGUGUAGUGACUAGACGGCACCCACCUAAGGCUAACGCUAUGGUGAAGGCAUAGUCCAGGGAGAGGCGAAAGUCACACAAACCGG, which reverse-splicing fitness is on record?
A: 0.364

Q: With GUGCCUUGCGCCGGGAAACCACGCAAGGGAUGGUGUCAAAUUCGGCGAAACCUAAGCGCCCGCCCGGGCGUAUGGCAACGCCGAGCCAAGCUUCGGCGCCUGCGCCGAUGGAGGUGUAGUGACUAGACGGCACCCACCUAAGGCUAACGCUAUGGUGAAGGCAUAGUCCAGGGAGCGGCGAAAGUCACACAAACCGG as the variant, how does the reverse-splicing fitness read?
A: 0.431

Q: With GUGCCUUGCGCCGGGAAACCACGCAAGGGAUGGUGUCAAAUUCGGCGAAACCUAAGCGCCCGCCCGGGCGUAUGGCAACGCCGAGCCAAGCUUCGGCGCCUGCGCCGAUGGAGGUGUAGUGACUAGACGGCACCCACCUAAGGCUAACGCUAUGGUGAAGGCAUAGUCCAGGGAGGGGCGAAAGUCACACAAACCGG as the variant, how does the reverse-splicing fitness read?
A: 0.15

Q: With GUGCCUUGCGCCGGGAAACCACGCAAGGGAUGGUGUCAAAUUCGGCGAAACCUAAGCGCCCGCCCGGGCGUAUGGCAACGCCGAGCCAAGCUUCGGCGCCUGCGCCGAUGGAGGUGUAGUGACUAGACGGCACCCACCUAAGGCAAACGAUAUGGUGAAGGCAUAGUCGAGGGAGCGGCGAAAGUCACACAAACCGG as the variant, how does the reverse-splicing fitness read?
A: 0.00454

Q: For GUGCCUUGCGCCGGGAAACCACGCAAGGGAUGGUGUCAAAUUCGGCGAAACCUAAGCGCCCGCCCGGGCGUAUGGCAACGCCGAGCCAAGCUUCGGCGCCUGCGCCGAUGGAGGUGUAGUGACUAGACGGCACCCACCUAAGGCAAACGAUAUGGUGAAGGCAUAGUCGAGGGAGAGGCGAAAGUCACACAAACCGG, which reverse-splicing fitness is on record?
A: 0.00675

Q: Which reverse-splicing fitness does the source give for GUGCCUUGCGCCGGGAAACCACGCAAGGGAUGGUGUCAAAUUCGGCGAAACCUAAGCGCCCGCCCGGGCGUAUGGCAACGCCGAGCCAAGCUUCGGCGCCUGCGCCGAUGGAGGUGUAGUGACUAGACGGCACCCACCUAAGGCAAACGAUAUGGUGAAGGCAUAGUCGAGGGAGGGGCGAAAGUCACACAAACCGG here?
A: 0.00211

Q: Which reverse-splicing fitness does the source give for GUGCCUUGCGCCGGGAAACCACGCAAGGGAUGGUGUCAAAUUCGGCGAAACCUAAGCGCCCGCCCGGGCGUAUGGCAACGCCGAGCCAAGCUUCGGCGCCUGCGCCGAUGGAGGUGUAGUGACUAGACGGCACCCACCUAAGGCAAACGGUAUGGUGAAGGCAUAGUCUAGGGAGUGGCGAAAGUCACACAAACCGG here?
A: 0.0103

Q: With GUGCCUUGCGCCGGGAAACCACGCAAGGGAUGGUGUCAAAUUCGGCGAAACCUAAGCGCCCGCCCGGGCGUAUGGCAACGCCGAGCCAAGCUUCGGCGCCUGCGCCGAUGGAGGUGUAGUGACUAGACGGCACCCACCUAAGGCAAACGGUAUGGUGAAGGCAUAGUCAAGGGAGUGGCGAAAGUCACACAAACCGG as the variant, how does the reverse-splicing fitness read?
A: 0.00729

Q: With GUGCCUUGCGCCGGGAAACCACGCAAGGGAUGGUGUCAAAUUCGGCGAAACCUAAGCGCCCGCCCGGGCGUAUGGCAACGCCGAGCCAAGCUUCGGCGCCUGCGCCGAUGGAGGUGUAGUGACUAGACGGCACCCACCUAAGGCAAACGGUAUGGUGAAGGCAUAGUCGAGGGAGUGGCGAAAGUCACACAAACCGG as the variant, how does the reverse-splicing fitness read?
A: 0.0111

Q: For GUGCCUUGCGCCGGGAAACCACGCAAGGGAUGGUGUCAAAUUCGGCGAAACCUAAGCGCCCGCCCGGGCGUAUGGCAACGCCGAGCCAAGCUUCGGCGCCUGCGCCGAUGGAGGUGUAGUGACUAGACGGCACCCACCUAAGGCAAACGGUAUGGUGAAGGCAUAGUCGAGGGAGCGGCGAAAGUCACACAAACCGG, which reverse-splicing fitness is on record?
A: 0.00213

Q: Which reverse-splicing fitness does the source give for GUGCCUUGCGCCGGGAAACCACGCAAGGGAUGGUGUCAAAUUCGGCGAAACCUAAGCGCCCGCCCGGGCGUAUGGCAACGCCGAGCCAAGCUUCGGCGCCUGCGCCGAUGGAGGUGUAGUGACUAGACGGCACCCACCUAAGGCAAACGGUAUGGUGAAGGCAUAGUCGAGGGAGAGGCGAAAGUCACACAAACCGG here?
A: 0.00427

Q: With GUGCCUUGCGCCGGGAAACCACGCAAGGGAUGGUGUCAAAUUCGGCGAAACCUAAGCGCCCGCCCGGGCGUAUGGCAACGCCGAGCCAAGCUUCGGCGCCUGCGCCGAUGGAGGUGUAGUGACUAGACGGCACCCACCUAAGGCAAACGGUAUGGUGAAGGCAUAGUCGAGGGAGGGGCGAAAGUCACACAAACCGG as the variant, how does the reverse-splicing fitness read?
A: 0.00237

Q: For GUGCCUUGCGCCGGGAAACCACGCAAGGGAUGGUGUCAAAUUCGGCGAAACCUAAGCGCCCGCCCGGGCGUAUGGCAACGCCGAGCCAAGCUUCGGCGCCUGCGCCGAUGGAGGUGUAGUGACUAGACGGCACCCACCUAAGGCAAACGAUAUGGUGAAGGCAUAGUCAAGGGAGAGGCGAAAGUCACACAAACCGG, which reverse-splicing fitness is on record?
A: 0.00442

Q: For GUGCCUUGCGCCGGGAAACCACGCAAGGGAUGGUGUCAAAUUCGGCGAAACCUAAGCGCCCGCCCGGGCGUAUGGCAACGCCGAGCCAAGCUUCGGCGCCUGCGCCGAUGGAGGUGUAGUGACUAGACGGCACCCACCUAAGGCAAACGAUAUGGUGAAGGCAUAGUCAAGGGAGCGGCGAAAGUCACACAAACCGG, which reverse-splicing fitness is on record?
A: 0.00292

Q: Which reverse-splicing fitness does the source give for GUGCCUUGCGCCGGGAAACCACGCAAGGGAUGGUGUCAAAUUCGGCGAAACCUAAGCGCCCGCCCGGGCGUAUGGCAACGCCGAGCCAAGCUUCGGCGCCUGCGCCGAUGGAGGUGUAGUGACUAGACGGCACCCACCUAAGGCAAACGAUAUGGUGAAGGCAUAGUCAAGGGAGGGGCGAAAGUCACACAAACCGG here?
A: 0.00195
